T1: LRRC15-hFc (Sino Biologicals, 15786-H02H) (UniProt Q8TF66 22-538)
T1 construct: also called LRRC15-Fc
T1 sequence (looked up): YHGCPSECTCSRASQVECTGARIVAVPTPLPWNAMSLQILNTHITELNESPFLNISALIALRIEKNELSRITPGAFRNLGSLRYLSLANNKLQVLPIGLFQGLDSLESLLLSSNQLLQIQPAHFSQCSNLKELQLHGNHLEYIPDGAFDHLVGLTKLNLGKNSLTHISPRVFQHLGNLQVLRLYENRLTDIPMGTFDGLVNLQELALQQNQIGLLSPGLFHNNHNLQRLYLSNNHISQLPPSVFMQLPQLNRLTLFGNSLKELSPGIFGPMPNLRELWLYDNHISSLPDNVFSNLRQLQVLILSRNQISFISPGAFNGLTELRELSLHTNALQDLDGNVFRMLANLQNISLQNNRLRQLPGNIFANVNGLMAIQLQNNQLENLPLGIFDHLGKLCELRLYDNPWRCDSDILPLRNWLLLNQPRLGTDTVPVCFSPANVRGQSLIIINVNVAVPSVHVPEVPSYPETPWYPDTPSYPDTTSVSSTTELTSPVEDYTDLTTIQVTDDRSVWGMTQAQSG


Tests used:
PD-1 = PD-1 (human, UniProt Q15116 25-167, limits assumed); assay: HTRF
Sequence of PD-1 (Q15116 25-167 limits assumed): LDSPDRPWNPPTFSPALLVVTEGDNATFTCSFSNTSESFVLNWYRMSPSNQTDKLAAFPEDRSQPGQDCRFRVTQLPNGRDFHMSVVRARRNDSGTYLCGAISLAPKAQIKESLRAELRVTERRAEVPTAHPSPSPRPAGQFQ
Excerpt: (§1) The PURExpress scFv proteins were used directly in HTRF binding assays and cell-based functional assays.

human IL-2 [1] = target: T2, human IL-2 (human, UniProt P60568 21-153, biotin label in the IL2RB blocking assay); assay: HTRF
T2 construct: also called biotin-labeled IL-2 (Acro Biosystems IL2-H82E4)
T2 sequence (P60568 21-153 limits assumed): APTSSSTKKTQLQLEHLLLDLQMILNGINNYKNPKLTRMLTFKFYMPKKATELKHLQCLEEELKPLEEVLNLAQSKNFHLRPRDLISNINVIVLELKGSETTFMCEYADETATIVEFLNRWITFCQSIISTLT
Excerpt: as §1

human IL-2 [2] = target: T2, human IL-2; assay: HTRF, IL-2:Fc-IL2RB
Excerpt: as §1

[3] = target: T1, LRRC15-hFc (Sino Biologicals, …); assay: ELISA (Example 33): cell-free expressed scFv on LRRC15; x axis Log (concentration, nM)
Excerpt: Proteins were expressed using the PUREfrex2.1 cell-free transcription/translation system as described in previous examples.

PD-L1 (Eu-labeled) = target: T3, PD-L1 (Eu-labeled) (UniProt Q9NZQ7 19-238, limits assumed, Eu label); assay: HTRF
T3 construct: also called Eu-labeled PD-L1
Description: The cell-free expression samples containing V5-tagged scFvs were serially diluted in a 384-well plate. […] Plates were incubated at room temperature for 2 hours and the HTRF signal was read on an Envision (Perkin Elmer) equipped with an HTRF laser module.

| PD1 Binding (HTRF signal) (PD-1) | IL2 Binding (HTRF signal) (human IL-2 [1]) | IL2RB Blocking (HTRF signal) (human IL-2 [2]) | binding result [3] | PDL1 Binding (HTRF signal) (PD-L1 (Eu-labeled)) | Binder |
| --- | --- | --- | --- | --- | --- |
| 730 | 973 | 1610 | – | – | PD1-IL2-R07-A04 (scFv) scFv: QVQLVQSGAEVKKPGASVKVSCKASGYTFTDYYMHWVRQAPGQGLEWMGIINPRAGYTSYALKFQGRVTMTRDTSTSTVYMELSSLRSEDTAVYYCTSGMDVWGQGTLVTVSSASGGGGSGGGGSGGGGSHASDIQMTQSPSSLSASVGDRVTITCRASQSISTWLAWYQQKPGKAPKLLIYAASSLQSGVPSRFSGSGSGTDFTLTISSLQPEDFATYYCQQSYSFPVTFGQGTKVEIK |
| – | – | – | binds | – | A03 (scFv) scFv: MSTSTQVQLVQSGAEVKKPGASVKVSCKASGYTFTGYYMHWVRQAPGQGLEWMGWMDPNNDDADYAQRFQGRVTMTRDTSTSTVYMELSSLRSEDTAVYYCASLAAAGPYYYYGMDVWGQGTLVTVSSASGGGGSGGGGSGGGGSHASDIQMTQSPSSLSASVGDRVTITCRASQSINNYLNWYQQKPGKAPKLLIYGASNLETGVPSRFSGSGSGTDFTLTISSLQPEDFATYYCQQSYGTPLTFGGGTKVEIKRAAAGSGSEQKLISEEDLGKPIPNPLLGLDST |
| – | – | – | binds | – | B07 (scFv) scFv: MSTSTQVQLVQSGAEVKKPGASVKVSCKASGYTFTGYYMHWVRQAPGQGLEWMGWMDPNNDDADYAQRFQGRVTMTRDTSTSTVYMELSSLRSEDTAVYYCASLAAAGPYYYYGMDVWGQGTLVTVSSASGGGGSGGGGSGGGGSHASDIQMTQSPSSLSASVGDRVTITCQASQDISNYLNWYQQKPGKAPKLLIYGASILEAGVPSRFSGSGSGTDFTLTISSLQPEDFATYYCQQSYSAPITFGQGTRLEIKRAAAGSGSEQKLISEEDLGKPIPNPLLGLDST |
| – | – | – | binds | – | i47_A12 (scFv) scFv: MSTSTQVQLVQSGAEVKKPGSSVKVSCKASGYTFINNDINWVRQAPGQGLEWMGGTIPIFGVHIYAQKFQGRVTITADESTSTAYMELSSLRSEDTAVYYCVSSVGAGAYYYYGMDVWGQGTLVTVSSASGGGGSGGGGSGGGGSHASDIQMTQSPSSLSASVGDRVTITCQASQDISNYLNWYQQKPGKAPKLLIYAASSLQSGVPSRFSGSGSGTDFTLTISSLQPEDFATYYCQQSYSLPYTFGQGTRLEIKRAAAGSGSEQKLISEEDLGKPIPNPLLGLDST |
| 1550 | 4 | 1550 | – | – | PD1-R04-C10 (scFv) MSTSTEQKLISEEDLQVQLVQSGAEVKKPGASVKVSCKASGYTFTTYYMHWVRQAPGQGLEWMGIINPSGGGTLYAQKFQGRVTMTRDTSTSTVYMELSSLRSEDTAVYYCAAGLFIWGQGTTVTVSSASGGGGSGGGGSGGGGSHASDIVMTQSPDSLAVSLGERATINCKASQSLLHSSSNKNYLAWYQQKPGQPPKLLIYWASTRESGVPDRFSGSGSGTDFTLTISSLQAEDVAVYYCQQYYSTPITFGPGTKVDIKGSGLNDIFEAQKIEWHEGKPIPNPLLGLDST |
| 1380 | 293 | 1210 | – | – | PD1-IL2-R02-C03 (scFv, cell-free expressed, V5-tagged) scFv: QVQLVQSGAEVKKPGASVKVSCKASGYTFPRYHIHWVRQAPGQGLEWMGMINPSGGTTTYAQKFQGRVTMTRDTSTSTVYMELSSLRSEDTAVYYCARDTGLGYYYGSGDFDYWGQGTLVTVSSASGGGGSGGGGSGGGGSHASDIQMTQSPSSLSASVGDRVTITCRASQSISSWLAWYQQKPGKAPKLLIYAASSLQSGVPSRFSGSGSGTDFTLTISSLQPEDFATYYCQQSHSFPLTFGGGTKVEIK |
| 50 | 247 | 1110 | – | – | PD1-IL2-R06-E04 (scFv, cell-free expressed, V5-tagged) scFv: QVQLVQSGAEVKKPGASVKVSCKASGYTFTRYYIHWVRQAPGQGLEWMGWINAYNGDTNYAQKLQGRVTMTRDTSTSTVYMELSSLRSEDTAVYYCARDSYYYDSFDYWGQGTLVTVSSASGGGGSGGGGSGGGGSHASDIQMTQSPSSLSASVGDRVTITCRASQTITDWLAWYQQKPGKAPKLLIYGASNLQGGVPSRFSGSGSGTDFTLTISSLQPEDFATYYCQQYYSSWTFGQGTKVEIK |
| 653 | 19 | 1730 | – | – | PD1-R07-A05 (scFv) scFv: QVQLVQSGAEVKKPGASVKVSCKASGYTFTTYYVHWVRQAPGQGLEWMGIINPSGGSTSYAQNFQGRVTMTRDTSTSTVYMELSSLRSEDTAVYYCASGWDVWGQGTTVTVSSASGGGGSGGGGSGGGGSHASEIVMTQSPATLSVSPGERATLSCRASQSVNTYLAWYQQKPGQAPRLLIYGASTRATGIPARFSGSGSGTEFTLTISSLQSEDFAVYYCQQYGSSPVTFGQGTRLEIK |
| – | – | – | – | 2750 | PDL1-IFN-R01-C08 (scFv, expressed cell-free as Myc tag + scFv + V5 tag) scFv: QVQLVQSGAEVKKPGASVKVSCKASGGTFSSYAISWVRQAPGQGLEWMGIIDPSVTYTRYAQKFQGRVTMTRDTSTSTVYMELSSLRSEDTAVYYCARSLFPTIFGVEVAFDIWGQGTLVTVSSASGGGGSGGGGSGGGGSHASDIQMTQSPSSLSASVGDRVTITCQASQDISNYLNWYQQKPGKAPKLLIYGASTLQSGVPSRFSGSGSGTDFTLTISSLQPEDFATYYCQQTYSTPITFGQGTKVEIK |
| – | – | – | – | 3040 | PDL1-IFN-R01-C11 (scFv, expressed cell-free as Myc tag + scFv + V5 tag) scFv: QVQLVQSGAEVKKPGASVKVSCKASGGTFSSYAISWVRQAPGQGLEWMGWMDANNGNTGYAQKFQGRVTMTRDTSTSTVYMELSSLRSEDTAVYYCARSLFPTIFGVEVAFDIWGQGTLVTVSSASGGGGSGGGGSGGGGSHASDIQMTQSPSSLSASVGDRVTITCRASQSVSSYLNWYQQKPGKAPKLLIYKASSLESGVPSRFSGSGSGTDFTLTISSLQPEDFATYYCQQSSSTPLSFGGGTKVEIK |
| 1240 | 2040 | 910 | – | – | PD1-IL2-R07-A09 (scFv, cell-free expressed, V5-tagged) scFv: QVQLVQSGAEVKKPGASVKVSCKASGYTFTSYYMHWVRQAPGQGLEWMGIINPSDGSTTYAQSFQGRVTMTRDTSTSTVYMELSSLRSEDTAVYYCASGWDVWGQGTLVTVSSASGGGGSGGGGSGGGGSHASDIVMTQSPDSLAVSLGERATINCKSSQSVFSSANNKNYLAWYQQKPGQPPKLLIYWASTRESGVPDRFSGSGSGTDFTLTISSLQAEDVAVYYCQQYFGTPVTFGGGTKVEIK |
| – | – | – | – | 416 | Anti-IFN control (SEQ ID NO: 30) (scFv, control scFv; also called Anti-IFNα control) scFv: EVQLVESGGGLVQPGGSLRLSCATSGYTFTEYIIHWVRQAPGKGLEWVASINPDYDITNYNQRFKGRFTISLDKSKRTAYLQMNSLRAEDTAVYYCASWISDFFDYWGQGTLVTVSSASGGGGSGGGGSGGGGSHASDIQMTQSPSSLSASVGDRVTITCRASQSVSTSSYSYMHWYQQKPGKAPKVLISYASNLESGVPSRFSGSGSGTDFTLTISSLQPEDFATYYCQHSWGIPRTFGQGTKVEIK |
| – | – | – | – | 2980 | PDL1-IFN-R01-B12 (scFv, expressed cell-free as Myc tag + scFv + V5 tag) scFv: QVQLVQSGAEVKKPGASVKVSCKASGNTFTDYYMHWVRQAPGQGLEWMGWMNPNSGNTGYAQKFQGRVTMTRDTSTSTVYMELSSLRSEDTAVYYCARSLFPTIFGVEVAFDIWGQGTLVTVSSASGGGGSGGGGSGGGGSHASDIQMTQSPSSLSASVGDRVTITCQASQDISNYLNWYQQKPGKAPKLLIYAASSLQSGVPSRFSGSGSGTDFTLTISSLQPEDFATYYCQQSYSTPPTFGQGTRLEIK |
| – | – | – | – | 1380 | PDL1-IFN-R01-B09 (scFv, expressed cell-free as Myc tag + scFv + V5 tag) scFv: QVQLVQSGAEVKKPGASVKVSCKASGGTFTGYYMHWVRQAPGQGLEWMGWVNPNSGNTGYAQKFQGRVTMTRDTSTSTVYMELSSLRSEDTAVYYCARSLFPTIFGVEVAFDIWGQGTLVTVSSASGGGGSGGGGSGGGGSHASDIQMTQSPSSLSASVGDRVTITCQASQDISNYLNWYQQKPGKAPKLLIYAASSLQSGVPSRFSGSGSGTDFTLTISSLQPEDFATYYCQQSYSPPPTFGQGTKLEIK |
| – | – | – | – | 2960 | PDL1-IFN-R01-A11 (scFv, expressed cell-free as Myc tag + scFv + V5 tag) scFv: QVQLVQSGAEVKKPGASVKVSCKASGGTFSSYYMHWVRQAPGQGLEWMGWMNPNSGNTGYAQKFQGRVTMTRDTSTSTVYMELSSLRSEDTAVYYCARSLFPTIFGVEVAFDIWGQGTLVTVSSASGGGGSGGGGSGGGGSHASDIQMTQSPSSLSASVGDRVTITCQASQDITNYLNWYQQKPGKAPKLLIYAASSLESGVPSRFSGSGSGTDFTLTISSLQPEDFATYYCQQSYSIPITFGQGTRLEIK |
| – | – | – | – | 2780 | PDL1-IFN-R01-A06 (scFv, expressed cell-free as Myc tag + scFv + V5 tag) scFv: QVQLVQSGAEVKKPGASVKVSCKASGGTFSSYAISWVRQAPGQGLEWVGWMDPKSGNTGYAQKFQGRVTMTRDTSTSTVYMELSSLRSEDTAVYYCARSLFPTIFGVEVAFDIWGQGTLVTVSSASGGGGSGGGGSGGGGSHASDIQMTQSPSSLSASVGDRVTITCQASQDINNYLNWYQQKPGKAPKLLIYKASSLEPGVPSRFSGSGSGTDFTLTISSLQPEDFATYYCQKSNDVPFTFGQGTKVEIK |

Source: patent US20240024501A1 (BONUM THERAPEUTICS, published 2024)
